# Source: the RNAGym collection of RNA variant scans (doi:10.1021/acssynbio.7b00057)
# B1: Pistol ribozyme (parent)
# chain: GGGUCGUUGUUCCAUAAUCGCGUGGAUAUGGCACGCAAGUUUCUACCGGGCACCGUAAAUGUCCGACUGGAGCCGUUCGGGCGGCUAUAAACAGACCUCAGGCCCGAAGCGUGGCGGCACCUGCCGCCGGUGGUAAAAAAGAUCGGAAGAGCACACGUCU
# Variants of: B1
# Test: aptazyme ON/OFF ratio, guanine; higher = stronger switching; co-transcriptional cleavage with and without guanine
row,Variant,aptazyme ON/OFF ratio
1,GGGUCGAUUGACCAUAAUCGCGUGGAUAUGGCACGCAAGUUUCUACCGGGCACCGUAAAUGUCCGACUGGAGCCGUUCGGGCGGCUAUAAACAGACCUCAGGCCCGAAGCGUGGCGGCACCUGCCGCCGGUGGUAAAAAAGAUCGGAAGAGCACACGUCU [U7A G9U U10G U11A],1.08
2,GGGUCGAUUCGCAAUAAUCGCGUGGAUAUGGCACGCAAGUUUCUACCGGGCACCGUAAAUGUCCGACUGGAGCCGUUCGGGCGGCUAUAAACAGACCUCAGGCCCGAAGCGUGGCGGCACCUGCCGCCGGUGGUAAAAAAGAUCGGAAGAGCACACGUCU [U7A G9U U10C U11G C13A],1.13
3,GGGUCGAUUCGCUAUAAUCGCGUGGAUAUGGCACGCAAGUUUCUACCGGGCACCGUAAAUGUCCGACUGGAGCCGUUCGGGCGGCUAUAAACAGACCUCAGGCCCGAAGCGUGGCGGCACCUGCCGCCGGUGGUAAAAAAGAUCGGAAGAGCACACGUCU [U7A G9U U10C U11G C13U],1.2
4,GGGUCGAUUCGCGAUAAUCGCGUGGAUAUGGCACGCAAGUUUCUACCGGGCACCGUAAAUGUCCGACUGGAGCCGUUCGGGCGGCUAUAAACAGACCUCAGGCCCGAAGCGUGGCGGCACCUGCCGCCGGUGGUAAAAAAGAUCGGAAGAGCACACGUCU [U7A G9U U10C U11G C13G],1.09
5,GGGUCGAUUGUAAAUAAUCGCGUGGAUAUGGCACGCAAGUUUCUACCGGGCACCGUAAAUGUCCGACUGGAGCCGUUCGGGCGGCUAUAAACAGACCUCAGGCCCGAAGCGUGGCGGCACCUGCCGCCGGUGGUAAAAAAGAUCGGAAGAGCACACGUCU [U7A G9U U10G C12A C13A],1.16
6,GGGUCGAUUGUAUAUAAUCGCGUGGAUAUGGCACGCAAGUUUCUACCGGGCACCGUAAAUGUCCGACUGGAGCCGUUCGGGCGGCUAUAAACAGACCUCAGGCCCGAAGCGUGGCGGCACCUGCCGCCGGUGGUAAAAAAGAUCGGAAGAGCACACGUCU [U7A G9U U10G C12A C13U],1.3
7,GGGUCGAUUGUAGAUAAUCGCGUGGAUAUGGCACGCAAGUUUCUACCGGGCACCGUAAAUGUCCGACUGGAGCCGUUCGGGCGGCUAUAAACAGACCUCAGGCCCGAAGCGUGGCGGCACCUGCCGCCGGUGGUAAAAAAGAUCGGAAGAGCACACGUCU [U7A G9U U10G C12A C13G],1.13
8,GGGUCGAUUCGUUAUAAUCGCGUGGAUAUGGCACGCAAGUUUCUACCGGGCACCGUAAAUGUCCGACUGGAGCCGUUCGGGCGGCUAUAAACAGACCUCAGGCCCGAAGCGUGGCGGCACCUGCCGCCGGUGGUAAAAAAGAUCGGAAGAGCACACGUCU [U7A G9U U10C U11G C12U C13U],1.27
9,GGGUCGAUUGUUCAUAAUCGCGUGGAUAUGGCACGCAAGUUUCUACCGGGCACCGUAAAUGUCCGACUGGAGCCGUUCGGGCGGCUAUAAACAGACCUCAGGCCCGAAGCGUGGCGGCACCUGCCGCCGGUGGUAAAAAAGAUCGGAAGAGCACACGUCU [U7A G9U U10G C12U],1.43
10,GGGUCGAUUGUGCAUAAUCGCGUGGAUAUGGCACGCAAGUUUCUACCGGGCACCGUAAAUGUCCGACUGGAGCCGUUCGGGCGGCUAUAAACAGACCUCAGGCCCGAAGCGUGGCGGCACCUGCCGCCGGUGGUAAAAAAGAUCGGAAGAGCACACGUCU [U7A G9U U10G C12G],1.13
11,GGGUCGAUUGUACAUAAUCGCGUGGAUAUGGCACGCAAGUUUCUACCGGGCACCGUAAAUGUCCGACUGGAGCCGUUCGGGCGGCUAUAAACAGACCUCAGGCCCGAAGCGUGGCGGCACCUGCCGCCGGUGGUAAAAAAGAUCGGAAGAGCACACGUCU [U7A G9U U10G C12A],1.15
12,GGGUCGAUUGUGGAUAAUCGCGUGGAUAUGGCACGCAAGUUUCUACCGGGCACCGUAAAUGUCCGACUGGAGCCGUUCGGGCGGCUAUAAACAGACCUCAGGCCCGAAGCGUGGCGGCACCUGCCGCCGGUGGUAAAAAAGAUCGGAAGAGCACACGUCU [U7A G9U U10G C12G C13G],1.25
13,GGGUCGAUUGUGAAUAAUCGCGUGGAUAUGGCACGCAAGUUUCUACCGGGCACCGUAAAUGUCCGACUGGAGCCGUUCGGGCGGCUAUAAACAGACCUCAGGCCCGAAGCGUGGCGGCACCUGCCGCCGGUGGUAAAAAAGAUCGGAAGAGCACACGUCU [U7A G9U U10G C12G C13A],1.18
14,GGGUCGAUUGUGUAUAAUCGCGUGGAUAUGGCACGCAAGUUUCUACCGGGCACCGUAAAUGUCCGACUGGAGCCGUUCGGGCGGCUAUAAACAGACCUCAGGCCCGAAGCGUGGCGGCACCUGCCGCCGGUGGUAAAAAAGAUCGGAAGAGCACACGUCU [U7A G9U U10G C12G C13U],1.25
15,GGGUCGAUUGUCCAUAAUCGCGUGGAUAUGGCACGCAAGUUUCUACCGGGCACCGUAAAUGUCCGACUGGAGCCGUUCGGGCGGCUAUAAACAGACCUCAGGCCCGAAGCGUGGCGGCACCUGCCGCCGGUGGUAAAAAAGAUCGGAAGAGCACACGUCU [U7A G9U U10G],1.75
16,GGGUCGAUUGAGCAUAAUCGCGUGGAUAUGGCACGCAAGUUUCUACCGGGCACCGUAAAUGUCCGACUGGAGCCGUUCGGGCGGCUAUAAACAGACCUCAGGCCCGAAGCGUGGCGGCACCUGCCGCCGGUGGUAAAAAAGAUCGGAAGAGCACACGUCU [U7A G9U U10G U11A C12G],1.33
17,GGGUCGAUUGAUCAUAAUCGCGUGGAUAUGGCACGCAAGUUUCUACCGGGCACCGUAAAUGUCCGACUGGAGCCGUUCGGGCGGCUAUAAACAGACCUCAGGCCCGAAGCGUGGCGGCACCUGCCGCCGGUGGUAAAAAAGAUCGGAAGAGCACACGUCU [U7A G9U U10G U11A C12U],1.06
18,GGGUCGAUUGAACAUAAUCGCGUGGAUAUGGCACGCAAGUUUCUACCGGGCACCGUAAAUGUCCGACUGGAGCCGUUCGGGCGGCUAUAAACAGACCUCAGGCCCGAAGCGUGGCGGCACCUGCCGCCGGUGGUAAAAAAGAUCGGAAGAGCACACGUCU [U7A G9U U10G U11A C12A],1.2
